This note sets out measurements from the DeepSol protein solubility set.

The data set in a line: soluble on expression in E. coli; label from the status in PepcDB or PDB records.
“MTDQPIIDYRFLEPLPRGIILAATPLGNIGDASPRLAQALAQAHVVAAEDTRRTRALAQALGVEITGQVLSNFDHNEQGRAQQLVEMARTHTVVVVTDAGMPIVSDPGFPLVEAAHKAGVPVTCFPGPSAVPTALALSGLHVGKFAFDGFAPRKQGQRRAWLESLQQEQRAVCFFESPHRIAATLADAAEVLGAKRRAAVARELTKTFEEVRRGGLGELAEWAAKGIKGEVSVVIEGVQHVQHEDVHSLVAVVEERVLAGERLKSACGEVAAHYGVSKKQLYDAVLESRAE”: the “soluble on expression in E. coli” value is “soluble”.
Next, “MAKYEILFKQLRLAILRGEYAPNDRLPSENAIAIKHGVSRITSKRALNELAAADLVYRVRGGGTFVKPHKSTTQRQILLVLPFPETTSFGDYPSGIQGTLAGTTWQLKLMANERFIQLNLDELASQYAGIIYYPQNLATELPILMRLYAQKMPLVVLDKQPAALAVPSVTSDNVAGGKIACEHLQSRGHHRIAFLPETPFWQTFTGTVSDRFLGYFNHLKLATSDAALPLRWAQALQACTTAVQLKAYIQAQRITAIIAENDVVALRALQRIQELTSNSDTSIALVGFDNLPAAARNNPALTTVVQDFAAIGAKAVEALLDQINNPEHLFDDQIVVGVKLMVRSSTNQY”: “not soluble”.
Next, “MFLLQAPLQRRILEIGKKHGITELHPDVVSYVSHATQQRLQNLVEKISETAQQKNFSYKDDDRYEQASDVRAQLK”: “soluble”; “MGSDKIHHHHHHAYGILGVLAITKDEAVLVAVTGVLSVGQLYGADILKITNVEFISLRTFGSVENVDSRIIDLQRQFIDLKKMFEKIIKKILKNLQRLLSSQMFYFSSLQSYDLTRSAQHRDSHDCSDARFFWNRSLHFSFQRYGIDTDNWLLKCMAGSVLVRVVYVGANTGRVALISRLSCERVGTRFNVRGANYLGNVANFVETEQLLLFDEKECSLLQIRGSIPLFWEQPGVNVGSHKVKLRAFETSLPAYHRHLSQLQHRYGEFAIVNLLGRKEGERVLGDAFKTQHKSSHFAPLVDFIDFDYHAQMKISKEAI”: “not soluble”.
Next, “SNAMLKREMNIADYDAELWQAMEQEKVRQEEHIELIASENYTSPRVMQAQGSQLTNKYAEGYPGKRYYGGCEYVDVVEQLAIDRAKELFGADYANVQPHSGSQANFAVYTALLQPGDTVLGMNLAQGGHLTHGSPVNFSGKLYNIVPYGIDESGKIDYDEMAKLAKEHKPKMIIGGFSAYSGVVDWAKMREIADSIGAYLFVDMAHVAGLIAAGVYPNPVPHAHVVTTTTHKTLAGPRGGLILAKGGDEELYKKLNSAVFPSAQGGPLMHVIAGKAVALKEAMEPEFKVYQQQVAKNAKAMVEVFLNRGYKVVSGGTENHLFLLDLVDKNLTGKEADAALGRANITVNKNSVPNDPKSPFVTSGIRIGSPAVTRRGFKEAEVKELAGWMCDVLDNINDEATIERVKAKVLDICARFPVYA”: “soluble”; “MAHHHHHHMETTAEEISAMLNENEHALIGELQGKYDFINFNEMKNYKEKKLHHELTLEVQKFINNKNVQVKDKFRLFYTLLSPLMSKLKKTIYAELLYIVTANFDANWTISYLKESEKNLENDKDAIIIYRCILILKYIELGDFKSCENEIENTKNLLQGVIGLNVVAHKFYNFAIMKYYNVLNKSDLFVKYALLYLAYTPLNDLDEADKIEIGTHICMHSIISEDVYNIGEIIQLPLINVCLKNNEQTNWLYQLIYIYNEGNIEVFNQVVHKYEENIKNSLLKDYKKNMIKKITLLALMDLAFKKKKQRSDISFEEIAQHCKVDVNEVEKMLITAKSKNILTCQIDEIQKSVKITWVKPRVLNNEKIFFMKESIDKWITHSKNLLTYMEDLSVELLIS”: “not soluble”.
“MGSDKIHHHHHHMRNLGNTNMKIKRVGFGGIPIQRITQDDTNLVINELEKQGINFIDSARGYTISEEAIGIAIEGKRDKFFLATKSMSRDYDSMKRDVEISLNNFKTDFIDLYQFHNVKEEEYDNLFKDKMAYSALLEAKEQGKIKHIGITSHNLNTIEKAIEDGKFDTIQFPYNIVEGQADEVFKKAHEKGIGIIVMKPLAGGALDNATLAIKYILSKDYIDVVIPGMESVEQVRQNVAVLENLVLDEKDNKEIEEIRNSLGKKFCRRCEYCMPCAVGINIPLSFLCEGYYTRYGLKEWAKEKYEVMDVKPTECIDCGLCESRCPYELPIREMLKTVVEKLG”: the “soluble on expression in E. coli” value is listed as “not soluble”.
Next, “SNAMKDKIIDNAITLFSEKGYDGTTLDDIAKSVNIKKASLYYHFDSKKSIYEQSVKCCFDYLNNIIMMNQNKSNYSIDALYQFLFEFIFDIEERYIRMYVQLSNTPEEFSGNIYGQIQDLNQSLSKEIAKFYDESKIKMTKEDFQNLILLFLESWYLKASFSQKFGAVEESKSQFKDEVYSLLNIFLKK”: “soluble”; “MGSDKIHHHHHHMSAGLTGIRVAVIGGDDREIYMIPELQKLGAYIVGVGFEKAAPIQGVTLLSSPLEAVEKADVLLFPMYGTDERGDVKAKYSETPIVLNKELLKAVSPKVPLFIGWARPALKSAAEMLGIQIVETANLDQLAILNSIPSAEGAIQMAMEASPITIHGSESFVLGLGRCGWTLARTLKGMGAHVTGVARKPADLARALEMGLEAVHFADLDEKIGKAELIFNTVPHLILDKVMLEQVNHEAVIIDIASLPGGTDFEYAKAKGIKAMLAPGLPGKVAPKAAGKILAQVYPQLILRHLTTKNASLKF”: “not soluble”.
Turning to “MVDMKTTHTSLPFAGHTLHFVEFDPANFCEQDLLWLPHYAQLQHAGRKRKTEHLAGRIAAVYALREYGYKCVPAIGELRQPVWPAEVYGSISHCGATALAVVSRQPIGVDIEEIFSAQTATELTDNIITPAEHERLADCGLAFSLALTLAFSAKESAFKASEIQTDAGFLDYQIISWNKQQVIIHRENEMFAVHWQIKEKIVITLCQHD”, the “soluble on expression in E. coli” value is “not soluble”.
Next, “MGSDKIHHHHHHMLTRLELAKDWVRDAGNFLKENIAAPLEITEKTRYDDLVTNFDKEVQEQIVANILHHFPEDKILAEEDEEKIKFDSEIPHLWVLDPIDGTTNFIVQKDNFAVMLAYYEYGVGKFGLILDVMKDKLYWCDSHKAFCNQKELELKERPLAQSLLGVNSYMYRSNSGGLLDLSHQTLGVRIIGSAGISYGQLLEGKIIGYFSSLQPWDYAAGSIIAERIGYVTLTISGESPHFNCRERVFTAPSYLISEIQKYIKK”: “not soluble”.
Next, “MRILYFDCFAGASGDMILGALLDLGIDVGIFKRELAGLNLDGFDIAVEKKVINSIAVTDVNVIVKEECNHHTGHHHHCERNLADIEKIIDESSLKDNVKRLSKKIFSEIARAEAKVHNKSIEDVHFHEVGAIDSIVDIVGTAICLDLLKVDKIYSSPMHDGTGFIECQHGKLPVPVPAVLEMLKESNIPYITEDVNTELLTPTGLGIIKCVASKFGPMPPMTIEKVGYGAGKRQTGRFNALRCILGNAKEKEKIDDEICMLETNIDDMNPEILGYVMNRLFENGALDVFYTPVYMKKNRPGVLLTVLTDKEHEEKLVDIILTETTTLGIRKTTAQRYVLEREIKHVNTEFGKIRVKESSFGDYKKYSPEFEDCKKVAQELKIPLSKVYDAVNKAILVFEERNENALQ”: “soluble”.
For “MGSDKIHHHHHHMTAASSVSAPGAPTIGVDFGTTNTVVSLTLGDDQARLVRYSINNRDLFAFRSALSFHSVQGVGEAANERVVEAGPWAIEAYLEDPLETRFIQSFKTFAASAAFTETRILNKRYQFEDLLAAFLLRLRDHAGAQLSELPPRIIVGRPVTFAGSSPDEALALTRYEAAFERLGFTDIRYAYEPVGAAFFFARQLKQDATVLVADFGGGTSDFSLVRFERAADGTLRSTPLSRSGVGVAGDAFDYRIIDQLVSPELGKGSDYRSFSNSLPIPQRYYAAFARWDQLALLRASKDMRDIRALERTAVEPDKIAALIEVLDGNHGYALYRSVSALKEALSSQDQATFRFEAGSVRIEKPVARVEFEAWIAPELAAIETAVGQALDQADLTEAGVDRVFLTGGSSFVPAVREIFLRRFGADKIETGGEFESIASGLALIGREADLDLWTMRAG”, the “soluble on expression in E. coli” value is listed as “not soluble”.
“APAILLVDDEPHSLAAMKLALEDDFDVLTAQGAEAAIAILEEEWVQVIICDQRMPGRTGVDFLTEVRERWPETVRIIITGYTDSASMMAAINDAGIHQFLTKPWHPEQLLSSARNAARMFTLARENERLSLEMRLLERP”: the “soluble on expression in E. coli” value is “soluble”.
Next, “MAHHHHHHMDVSRRLAGENHDFRRSTQVPALCTKPQGGKGMRLNVLHEGAVPANDFHSAHLTPYEMDEIKGYSEVYYVGQNCDRKVQAPVEGGHNKGYDDERGDYLIRLRDHIAYRYEVLSTLGSGSFGQVVKAVDHCKNCTVALKIIRNRKRFTAQAKIEVQILSHLKKGDPSGIYGIVQMIDNFTFRSHVCITYELLGCNLYTYLKQRRFKPLPLDVVRKIGAGVLVSLSYMWRENIIHCDLKPENILLRSPNDTAVKVIDLGSSCFENARLFTYIQSRFYRAPEVLLGCPYSRCIDLWSYGCVLCELASGYPIFPGESEQEQMACIMEFLGTPPRDFILRSPRKHEFFEASANYSPKLVPNSKLKIRFPGTKNIAAFLGLPEGDPFVSFVKLFLEWVPDSRATPRRAMKHPWIADEVNELLSKQKRNTAATGEDDSESKFHKALPRLPKIGK”: “not soluble”; “MKDTTRNTYLAVDFGGGSGRVIAGSLLQGKLELEEIHRFTNRQVKLGNHVYWDFPALFEDMKTGLKLAAQKGYHVKGIGIDTWGVDFGLIDKKGNLLGNPVCYRDARTDGMPDKVFQILDAQKHYACTGIQVMPINTLFQLYSMQQNQDVLLEVAQRLLFMPDLFSYYLTGVANNEYCIASTSELLDARQRNWSMDTIRALGLPEHLFGEIILPGTVRGTLKEEIGRETGLGPVDIIAVGSHDTASAVAAVPATEGQVAFLSSGTWSLLGVEVDEPILTEEARLAQFTNEGGVGGHIRFLQNITGLWILQRLMSEWKLRGEEQSYDTILPQAADAEIDTIIPVDDAEFMNPENMETALLNYCRNHSLKVPGNKAEMVKCVLQSLAFKYREAVAQLNRCLPSPIHRLNIIGGGSQNKLLNQLTANALGIPVYAGPVEATAMGNILTQAMAKGEISSLREIREVVSHSVTPQVYYPEK”: “not soluble”.
In the case of “SLTDRLERKLAIAANQDKADLLIKNGQIVDVFQLETFEGDVVIADGEIVAISDPGTYEAHEEVDAKGAFIAPAFIDGHVHIESSMVAPEQFAKVVVPHGVTTVIADPHEIANVAGVQGVEYMLDASEGIPLDVKMMVPSCVPATPFEHSGARLTAEEVAELFRDPRIFGLGEVMDYPAVLTRDQEMMAKLKAAHSEGRIVDGHGAGLDSVALNAYTAAGIGNDHEAVTPEEAKARLQRGMYLLIREGTAAKDFDALMKAITPMNSRRALFVTDDKHLDELVEEGSIDHHVRKAIQIGVNPLQAIQMASLNAAECFKLAKKGAIAPGFTADLLFIEDLQSLAITHVFKNGTCVAKNGKLIVPIRETVQPPQRLLESVNMKLVTKEQLELSLQSDEEAHLIQIQPGSIVTKHIREKVAVKDGVFIPSVARDQLKLVVAERHHKRGTVGVGIVKGFGLTKGAIATTVAHDSHNIVAVGTNDEDLLAAIKELENIQGGMTIVKDGKVLVSLPLTIGGLMSDQSYDVVCEQIKSVDAAIGALGFVGDFNPFLTLSFLALPVIPEIKLTDQGLFDVTSFSFIDQQVYAEETN”, the “soluble on expression in E. coli” value is listed as “soluble”.
Next, “VEADSNIGYNATFGYQKPMGGAGAYWGMEFGLGSRGFKADEMKCIAHNIQYSPFTFGWKIGVADNLSIDPHLGVFASYDYTSKMKESGESISWGDFADYLEVDYNHFDAGMNIGVGLWYDRFNLDFTYQRGFIDVFSDLDGIKTSNFMIRLGIAF”: “not soluble”.
Next, “SLLGMNFAMHTTIDTKLVLFGPSENLVTEDDDARNMASKLIENGIITTACINYVKDKPAESKLREMRIVLEPVGKIISDYIKDGYVPVTF”: “not soluble”; “MKKLQIAVGIIRNENNEIFITRRAADAHMANKLEFPGGKIEMGETPEQAVVRELQEEVGITPQHFSLFEKLEYEFPDRHITLWFWLVERWEGEPWGKEGQPGEWMSLVGLNADDFPPANEPVIAKLKRL”: “soluble”.
